Laboratory results taken from patent US20240301067A1.

Experiments:
[1] = biological target: Cynomolgus monkey PD-1 on transiently transfected 293F cells (cynomolgus monkey); test: FACS on cyno PD-1 transfected 293F cells, experiment 1
[2] = biological target: Cynomolgus PD-1 extracellular domain, hFc tag (cynomolgus) (UniProt B0LAJ3); test: ELISA competition on coated cynoPro1.ECD.hFc; competitor cynoProL1.ECD.hFc.biotin 2.5 µg/mL; experiment 2
[3] = biological target: Human PD-1 on CHO-S cells (human) (UniProt Q15116); test: FACS competition on CHO-S.hPro1.C6 cells; competitor hProL1.ECD.mFc 5 µg/mL
[4] = biological target: Cynomolgus monkey PD-1 on transiently transfected 293F cells (cynomolgus monkey); test: FACS on cyno PD-1 transfected 293F cells, experiment 2
[5] = biological target: Cynomolgus PD-1 extracellular domain, hFc tag (cynomolgus) (UniProt B0LAJ3); test: ELISA competition on coated cynoPro1.ECD.hFc; competitor cynoProL1.ECD.hFc.biotin 2.5 µg/mL; experiment 1
[6] = biological target: Cynomolgus PD-1 (soluble analyte in SPR, Table 11) (cynomolgus) (UniProt B0LAJ3); test: SPR Biacore 8K; antibody captured on anti-human Fc chip, PD-1 injected; 1:1 fit
[7] = biological target: Human PD-1 (soluble analyte in SPR, Table 11) (human) (UniProt Q15116); test: as above
[8] = biological target: Human PD-1 extracellular domain, mFc tag (human) (UniProt Q15116); test: ELISA competition on coated hPro1.ECD.mFc; competitor hPro1L2.ECD.His; experiment 2
[9] = biological target: Human PD-1 extracellular domain, mFc tag (human) (UniProt Q15116); test: ELISA competition on coated hPro1.ECD.mFc; competitor hPro1L2.ECD.His; experiment 1
[10] = biological target: Human PD-1 on CHO-S cells (human) (UniProt Q15116); test: FACS on CHO-S.hPro1.C6 cells

Sequence of Human PD-1 (soluble analyte in SPR, Table 11) (human) (Q15116 25-167 limits assumed): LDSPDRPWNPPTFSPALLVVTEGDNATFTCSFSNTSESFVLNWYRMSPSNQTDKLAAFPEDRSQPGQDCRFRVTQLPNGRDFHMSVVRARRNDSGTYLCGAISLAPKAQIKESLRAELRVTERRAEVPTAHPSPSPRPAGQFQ
Sequence of Human PD-1 on CHO-S cells (human) (Q15116 25-288): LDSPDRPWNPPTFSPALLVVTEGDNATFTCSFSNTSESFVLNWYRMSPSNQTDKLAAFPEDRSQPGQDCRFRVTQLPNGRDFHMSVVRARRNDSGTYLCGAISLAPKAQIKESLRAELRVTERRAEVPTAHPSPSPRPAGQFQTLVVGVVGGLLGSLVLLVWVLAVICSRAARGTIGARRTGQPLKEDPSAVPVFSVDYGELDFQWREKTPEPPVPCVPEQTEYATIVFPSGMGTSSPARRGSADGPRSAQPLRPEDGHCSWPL
Sequence of Cynomolgus PD-1 (soluble analyte in SPR, Table 11) (cynomolgus) (B0LAJ3 entry or part of it limits assumed): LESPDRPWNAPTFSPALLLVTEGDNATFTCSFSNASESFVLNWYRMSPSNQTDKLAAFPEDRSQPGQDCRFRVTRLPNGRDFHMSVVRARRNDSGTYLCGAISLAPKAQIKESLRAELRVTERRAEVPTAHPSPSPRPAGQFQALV
Sequence of Cynomolgus PD-1 extracellular domain, hFc tag (cynomolgus) (B0LAJ3 entry or part of it limits assumed): as above
Sequence of Human PD-1 extracellular domain, mFc tag (human) (Q15116 25-170): as the sequence (B0LAJ3 entry or part of it limits assumed) above, with E2D, A10P, L19V, A35T, R75Q, A144T counted along it

EC50 [1]: 0.55 nM
IC50 [2]: 0.585 nM
IC50 [3]: 0.544 nM
EC50 [4]: 1.98 nM
IC50 [5]: 0.47 nM
Kd [6]: 2.23 nM
koff [6]: 0.000672 s⁻¹
kon [6]: 301000 M⁻¹ s⁻¹
Kd [7]: 2.87 nM
koff [7]: 0.00116 s⁻¹
kon [7]: 405000 M⁻¹ s⁻¹
IC50 [8]: 0.534 nM
IC50 [9]: 0.95 nM
EC50 [10]: 0.409 to 0.749 nM
Substance: Benchmark antibody 1 (Opdivo, Nivolumab)
